The values below come from the supplement of paper PMC9112550, “Optimization of the antimicrobial peptide Bac7 by deep mutational scanning” (BMC Biology, 2022).
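Note: peptides expressed intracellularly from a pBAD plasmid library in pooled LB shake-flask culture, induced with 0.3% L-arabinose, DNA abundance read by NGS, three biological replicates, DESeq2 with apeglm shrinkage.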

The data set has as its system Escherichia coli TOP10. Briefly: shrunken log2 fold change of peptide-encoding DNA abundance (4.5 h post-induction vs induction); higher = less antimicrobial activity (less host growth inhibition). Conditions: time post-induction: 4.5 h; library: site-saturation at positions 5, 18, 19, 20.
As for RRIRYRPPRLPRPRPRPPVFPRP, the “shrunken log2 fold change” value is 0.0494. To RRIRPRPPRLPRPRPRPLTNPRP belongs -0.521; to RRIRCRPPRLPRPRPRPTRRPRP, 0.391; to RRIRQRPPRLPRPRPRPQKGPRP, 0.011. Regarding RRIRHRPPRLPRPRPRPDGGPRP, the “shrunken log2 fold change” value was -0.137. As for RRIRWRPPRLPRPRPRPKMQPRP, the figure is 0.329; as for RRIRERPPRLPRPRPRPVMGPRP, -0.123; as for RRIRTRPPRLPRPRPRPTALPRP, 0.0207.

For the sequence RRIRRRPPRLPRPRPRPPNTPRP, the “shrunken log2 fold change” value is 0.884.

In the case of RRIRARPPRLPRPRPRPFLDPRP, the “shrunken log2 fold change” value is 0.116. As for RRIRNRPPRLPRPRPRPRRDPRP, the figure is -0.0239.

Take RRIRSRPPRLPRPRPRPCQGPRP: the “shrunken log2 fold change” value was -0.028. To RRIRCRPPRLPRPRPRPTMIPRP belongs -0.922. To RRIRQRPPRLPRPRPRPCNAPRP belongs 0.0357. To RRIRFRPPRLPRPRPRPWIQPRP belongs -0.997; to RRIRYRPPRLPRPRPRPILMPRP, -0.0114. For RRIRKRPPRLPRPRPRPASYPRP, the “shrunken log2 fold change” value was -0.0778. To RRIRGRPPRLPRPRPRPDGDPRP belongs 0.265. To RRIRTRPPRLPRPRPRPRGHPRP belongs 0.182; to RRIRARPPRLPRPRPRPNTEPRP, 0.154. To RRIRWRPPRLPRPRPRPAAYPRP belongs 0.346; to RRIRIRPPRLPRPRPRPYVHPRP, -0.189. For RRIRVRPPRLPRPRPRPFQIPRP, the “shrunken log2 fold change” value is -0.603. RRIRCRPPRLPRPRPRPVVPPRP: the “shrunken log2 fold change” value is -0.168.

For RRIRYRPPRLPRPRPRPNPWPRP, the “shrunken log2 fold change” value was -0.189. To RRIRFRPPRLPRPRPRPKESPRP belongs -0.0731. As for RRIRGRPPRLPRPRPRPCWSPRP, the figure is 0.144. As for RRIRKRPPRLPRPRPRPHKWPRP, the figure is -0.0776. On to RRIRWRPPRLPRPRPRPLDKPRP, for which the “shrunken log2 fold change” value worked out at 0.352. As for RRIRLRPPRLPRPRPRPWSLPRP, the figure is -0.195.

For the sequence RRIRSRPPRLPRPRPRPAQQPRP, the “shrunken log2 fold change” value was 0.409. As for RRIRMRPPRLPRPRPRPEVAPRP, the “shrunken log2 fold change” value was found to be 3.75. As for RRIRWRPPRLPRPRPRPDLGPRP, the figure is -0.135; as for RRIRWRPPRLPRPRPRPKLLPRP, 0.336. As for RRIRPRPPRLPRPRPRPIQAPRP, the figure is 0.144; as for RRIRSRPPRLPRPRPRPVDPPRP, 0.00726. As for RRIRMRPPRLPRPRPRPSVNPRP, the “shrunken log2 fold change” value is -0.0473. To RRIRERPPRLPRPRPRPIYEPRP belongs -0.236; to RRIRCRPPRLPRPRPRPWNRPRP, -0.162; to RRIRKRPPRLPRPRPRPTEPPRP, -0.0305. As for RRIRLRPPRLPRPRPRPIWNPRP, the figure is 0.0155; as for RRIRPRPPRLPRPRPRPEVAPRP, 0.212. As for RRIRTRPPRLPRPRPRPQCWPRP, the figure is -0.19; as for RRIRMRPPRLPRPRPRPFKFPRP, -0.012. Take RRIRNRPPRLPRPRPRPLHQPRP: the “shrunken log2 fold change” value is -0.112. As for RRIRIRPPRLPRPRPRPIHEPRP, the figure is -0.316; as for RRIRARPPRLPRPRPRPMFRPRP, -0.217; as for RRIRSRPPRLPRPRPRPVQFPRP, 0.11. To RRIRERPPRLPRPRPRPGAIPRP belongs -0.187; to RRIRLRPPRLPRPRPRPHNQPRP, -0.479. As for RRIRTRPPRLPRPRPRPEKYPRP, the figure is -0.156; as for RRIRQRPPRLPRPRPRPMPTPRP, 0.0311; as for RRIRERPPRLPRPRPRPDMDPRP, 0.0527. On to RRIRYRPPRLPRPRPRPYQYPRP, for which the “shrunken log2 fold change” value was -1.05.

In the case of RRIRPRPPRLPRPRPRPQWIPRP, the “shrunken log2 fold change” value was 0.0662. To RRIRFRPPRLPRPRPRPCAAPRP belongs 0.35; to RRIRVRPPRLPRPRPRPYYHPRP, -0.877; to RRIRIRPPRLPRPRPRPRRAPRP, 0.176.

Turning to RRIRSRPPRLPRPRPRPRWAPRP, the “shrunken log2 fold change” value is 0.158. To RRIRLRPPRLPRPRPRPTTKPRP belongs 0.155; to RRIRWRPPRLPRPRPRPMKLPRP, -0.198.

As for RRIRNRPPRLPRPRPRPCSVPRP, the “shrunken log2 fold change” value is 0.0192. As for RRIRNRPPRLPRPRPRPSHYPRP, the figure is -1.22; as for RRIRNRPPRLPRPRPRPETKPRP, 0.384.

For RRIRHRPPRLPRPRPRPPTNPRP, the “shrunken log2 fold change” value amounted to 0.101. As for RRIRVRPPRLPRPRPRPYTCPRP, the figure is -0.164; as for RRIRLRPPRLPRPRPRPANGPRP, 0.115. As for RRIRWRPPRLPRPRPRPFIIPRP, the figure is -0.617. For RRIRLRPPRLPRPRPRPECVPRP, the “shrunken log2 fold change” value came out at 0.148. As for RRIRHRPPRLPRPRPRPREYPRP, the figure is -0.0589; as for RRIRGRPPRLPRPRPRPLCRPRP, 0.598. To RRIRVRPPRLPRPRPRPNTWPRP belongs -0.197.

Turning to RRIRHRPPRLPRPRPRPDFLPRP, the “shrunken log2 fold change” value is -0.0554. For RRIRPRPPRLPRPRPRPCRVPRP, the “shrunken log2 fold change” value was -0.309. On to RRIRVRPPRLPRPRPRPIFIPRP, for which the “shrunken log2 fold change” value was -0.328. As for RRIRNRPPRLPRPRPRPLINPRP, the figure is -0.533. As for RRIRARPPRLPRPRPRPVNKPRP, the “shrunken log2 fold change” value was -0.117. As for RRIRKRPPRLPRPRPRPNFMPRP, the figure is -0.117; as for RRIRKRPPRLPRPRPRPTHFPRP, -0.105. RRIRARPPRLPRPRPRPICAPRP: the “shrunken log2 fold change” value came to 0.799. Consider RRIRVRPPRLPRPRPRPCWFPRP, for which the “shrunken log2 fold change” value was -0.106.

As for RRIRQRPPRLPRPRPRPDFVPRP, the “shrunken log2 fold change” value worked out at 0.0112.

Consider RRIRQRPPRLPRPRPRPRYRPRP, for which the “shrunken log2 fold change” value is -0.419. As for RRIRCRPPRLPRPRPRPRKIPRP, the “shrunken log2 fold change” value is 0.245. As for RRIRNRPPRLPRPRPRPPEHPRP, the figure is 0.266; as for RRIRMRPPRLPRPRPRPPAQPRP, 1.08; as for RRIRKRPPRLPRPRPRPVWEPRP, 0.391.

In the case of RRIRTRPPRLPRPRPRPNNYPRP, the “shrunken log2 fold change” value is -0.754. As for RRIRCRPPRLPRPRPRPEKQPRP, the figure is -0.0123; as for RRIRNRPPRLPRPRPRPCLMPRP, -0.299.

For RRIRRRPPRLPRPRPRPFWSPRP, the “shrunken log2 fold change” value stood at 0.18. As for RRIRARPPRLPRPRPRPGTPPRP, the figure is 0.642.

In the case of RRIRQRPPRLPRPRPRPVNKPRP, the “shrunken log2 fold change” value turned out to be 0.112. To RRIRKRPPRLPRPRPRPMLNPRP belongs 0.174; to RRIRGRPPRLPRPRPRPWNTPRP, 0.111; to RRIRMRPPRLPRPRPRPKLYPRP, 0.256. Regarding RRIRTRPPRLPRPRPRPCYTPRP, the “shrunken log2 fold change” value was -0.0244. To RRIRHRPPRLPRPRPRPMRYPRP belongs -0.0889; to RRIRQRPPRLPRPRPRPDQWPRP, 0.129; to RRIRFRPPRLPRPRPRPENTPRP, 0.003. As for RRIRGRPPRLPRPRPRPRVQPRP, the figure is 0.218. As for RRIRPRPPRLPRPRPRPYMPPRP, the figure is -0.854; as for RRIRERPPRLPRPRPRPIFNPRP, -0.663. Turning to RRIRARPPRLPRPRPRPNRSPRP, the “shrunken log2 fold change” value was -0.229. Turning to RRIRSRPPRLPRPRPRPLFQPRP, the “shrunken log2 fold change” value was -0.126. For the sequence RRIRERPPRLPRPRPRPMNAPRP, the “shrunken log2 fold change” value is -0.259.

As to RRIRYRPPRLPRPRPRPWNAPRP, the “shrunken log2 fold change” value was -0.397. RRIRRRPPRLPRPRPRPSQLPRP: the “shrunken log2 fold change” value is 0.448. Consider RRIRCRPPRLPRPRPRPAKNPRP, for which the “shrunken log2 fold change” value was 0.00465. For the sequence RRIRHRPPRLPRPRPRPEEIPRP, the “shrunken log2 fold change” value amounted to 0.0207. To RRIRVRPPRLPRPRPRPGTQPRP belongs -0.183. To RRIRGRPPRLPRPRPRPNANPRP belongs 0.837; to RRIRYRPPRLPRPRPRPKWWPRP, -0.0129; to RRIRYRPPRLPRPRPRPMPWPRP, -0.0575. As for RRIRGRPPRLPRPRPRPKLWPRP, the figure is 0.896; as for RRIRIRPPRLPRPRPRPNCQPRP, -0.367. Take RRIRNRPPRLPRPRPRPLDHPRP: the “shrunken log2 fold change” value was -0.0699. As for RRIRERPPRLPRPRPRPMRVPRP, the figure is 0.501; as for RRIRYRPPRLPRPRPRPTFDPRP, -0.76.

Turning to RRIRTRPPRLPRPRPRPPDIPRP, the “shrunken log2 fold change” value is -0.118.

For the sequence RRIRQRPPRLPRPRPRPPIYPRP, the “shrunken log2 fold change” value is -0.129.

For RRIRPRPPRLPRPRPRPKPGPRP, the “shrunken log2 fold change” value is 0.684.

For RRIRFRPPRLPRPRPRPDFEPRP, the “shrunken log2 fold change” value was 0.0453. As for RRIRWRPPRLPRPRPRPQIMPRP, the figure is -0.0336; as for RRIRFRPPRLPRPRPRPEQKPRP, 0.341.
